Results reported in publication PMC12401477 (Cell reports, 2025).

What was measured:
mass photometry [1] = target: the molecule itself; test: mass photometry
mass photometry [2] = target: the molecule itself; test: mass photometry; remark: listed apart in the source

B1: N-terminally extended IRF7 isoform (exIRF7, intron 1 retained) with C-terminal 3xFLAG tag (natural protein, human, UniProt Q92985-4 1-516, looked up)
chain: MPVPERPAAGPDSPRPGTRRAAPRVLFGEWLLGEISSGCYEGLQWLDEARTCFRVPWKHFARKDLSEADARIFKAWAVARGRWPPSSRGGGPPPEAETAERAGWKTNFRCALRSTRRFVMLRDNSGDPADPHKVYALSRELCWREGPGTDQTEAEAPAAVPPPQGGPPGPFLAHTHAGLQAPGPLPAPAGDKGDLLLQAVQQSCLADHLLTASWGADPVPTKAPGEGQEGLPLTGACAGGPGLPAGELYGWAVETTPSPGPQPAALTTGEAAAPESPHQAEPYLSPSPSACTAVQEPSPGALDVTIMYKGRTVLQKVVGHPSCTFLYGPPDPAVRATDPQQVAFPSPAELPDQKQLRYTEELLRHVAPGLHLELRGPQLWARRMGKCKVYWEVGGPPGSASPSTPACLLPRNCDTPIFDFRVFFQELVEFRARQRRGSPRYTIYLGFGQDLSAGRPKEKSLVLVKLEPWLCRVHLEGTQREGVSSLDSSSLSLCLSSANSLYDDIECFLMELEQPA
modifications: phosphorylated (sites not given)
stoichiometry N (mass photometry [1]): 2 | fold tighter Kd of dimerization than cIRF7 (mass photometry [2]): ~6 fold
